In the MegaScale stability set (Tsuboyama et al. 2023):

B1: 2K2A (parent)
chain: ELREAFRLYDKEGNGYISTDVMREILAELDETLSSEDLDAMIDEIDADGSGTVDFEEFMGVMT

Variants of: B1
Assay: folding stability dG (cDNA display proteolysis); higher = more stable
Conditions: PBS, room temperature

First: ELREAFRLYDKEGNGYISTDVMREILAELDETLSSEDLDAMIDEIDARGSGTVDFEEFMGVMT [D48R]
Second: ELREAFRLYDKEGNGYISTDVMREILAELDETLSSEDLDAMIDEIDAVGSGTVDFEEFMGVMT [D48V]
The “folding stability dG” value of the first is higher: 6.36 kJ/mol for the first, 4.95 kJ/mol for the second.

Going from ELREAFRLYDKEGNGYISTDVMREILAELDETLSSEDLDAMIDEIDASGSGTVDFEEFMGVMT [D48S] to ELREAFRLYDKEGNGYISTDVMREILAELDETLSSEDLDAMIDEIDAQGSGTVDFEEFMGVMT [D48Q], the “folding stability dG” value falls from 6.59 kJ/mol to 5.46 kJ/mol.

Compared with ELREAFRLYDKEGNGYISTDVMREILAELDETLSSEDLDAMIDEIDAYGSGTVDFEEFMGVMT [D48Y], ELREAFRLYDKEGNGYISTDVMREILAELDETLSSEDLDAMIDEIDATGSGTVDFEEFMGVMT [D48T] is higher in “folding stability dG” value: 5.45 kJ/mol for the first, 6.71 kJ/mol for the second.

Compared with ELREAFRLYDKEGNGYISTDVMREILAELDETLSSEDLDAMIDEIDAPGSGTVDFEEFMGVMT [D48P], ELREAFRLYDKEGNGYISTDVMREILAELDETLSSEDLDAMIDEIDAWGSGTVDFEEFMGVMT [D48W] is higher in “folding stability dG” value: 1.95 kJ/mol for the first, 5.19 kJ/mol for the second.

Going from ELREAFRLYDKEGNGYISTDVMREILAELDETLSSEDLDAMIDEIDADGHGTVDFEEFMGVMT [S50H] to ELREAFRLYDKEGNGYISTDVMREILAELDETLSSEDLDAMIDEIDADGGGTVDFEEFMGVMT [S50G], the “folding stability dG” value falls from 4.87 kJ/mol to 4.38 kJ/mol.

Compared with ELREAFRLYDKEGNGYISTDVMREILAELDETLSSEDLDAMIDEIDADGFGTVDFEEFMGVMT [S50F], ELREAFRLYDKEGNGYISTDVMREILAELDETLSSEDLDAMIDEIDADGNGTVDFEEFMGVMT [S50N] is higher in “folding stability dG” value: 4.15 kJ/mol for the first, 6.97 kJ/mol for the second.

Compared with ELREAFRLYDKEGNGYISTDVMREILAELDETLSSEDLDAMIDEIDADGKGTVDFEEFMGVMT [S50K], ELREAFRLYDKEGNGYISTDVMREILAELDETLSSEDLDAMIDEIDADGIGTVDFEEFMGVMT [S50I] is lower in “folding stability dG” value: 7.46 kJ/mol for the first, 4.78 kJ/mol for the second.

First: ELREAFRLYDKEGNGYISTDVMREILAELDETLSSEDLDAMIDEIDADGQGTVDFEEFMGVMT [S50Q]
Second: ELREAFRLYDKEGNGYISTDVMREILAELDETLSSEDLDAMIDEIDADGDGTVDFEEFMGVMT [S50D]
The “folding stability dG” value of the first is lower: 4.7 kJ/mol for the first, 5.57 kJ/mol for the second.

Compared with ELREAFRLYDKEGNGYISTDVMREILAELDETLSSEDLDAMIDEIDADGTGTVDFEEFMGVMT [S50T], ELREAFRLYDKEGNGYISTDVMREILAELDETLSSEDLDAMIDEIDADGMGTVDFEEFMGVMT [S50M] is lower in “folding stability dG” value: 7.88 kJ/mol for the first, 5.42 kJ/mol for the second.

Compared with ELREAFRLYDKEGNGYISTDVMREILAELDETLSSEDLDAMIDEIDADGEGTVDFEEFMGVMT [S50E], ELREAFRLYDKEGNGYISTDVMREILAELDETLSSEDLDAMIDEIDADGPGTVDFEEFMGVMT [S50P] is lower in “folding stability dG” value: 3.93 kJ/mol for the first, 0.544 kJ/mol for the second.

First: ELREAFRLYDKEGNGYISTDVMREILAELDETLSSEDLDAMIDEIDADGCGTVDFEEFMGVMT [S50C]
Second: ELREAFRLYDKEGNGYISTDVMREILAELDETLSSEDLDAMIDEIDADGRGTVDFEEFMGVMT [S50R]
The “folding stability dG” value of the first is lower: 5.79 kJ/mol for the first, 6.75 kJ/mol for the second.

First: ELREAFRLYDKEGNGYISTDVMREILAELDETLSSEDLDAMIDEIDADGLGTVDFEEFMGVMT [S50L]
Second: ELREAFRLYDKEGNGYISTDVMREILAELDETLSSEDLDAMIDEIDADGAGTVDFEEFMGVMT [S50A]
The “folding stability dG” value of the first is higher: 5.1 kJ/mol for the first, 4.66 kJ/mol for the second.

Compared with ELREAFRLYDKEGNGYISTDVMREILAELDETLSSEDLDAMIDEIDADESGTVDFEEFMGVMT [G49E], ELREAFRLYDKEGNGYISTDVMREILAELDETLSSEDLDAMIDEIDADRSGTVDFEEFMGVMT [G49R] is higher in “folding stability dG” value: 5.28 kJ/mol for the first, 8.17 kJ/mol for the second.

First: ELREAFRLYDKEGNGYISTDVMREILAELDETLSSEDLDAMIDEIDADCSGTVDFEEFMGVMT [G49C]
Second: ELREAFRLYDKEGNGYISTDVMREILAELDETLSSEDLDAMIDEIDADASGTVDFEEFMGVMT [G49A]
The “folding stability dG” value of the first is higher: 7.15 kJ/mol for the first, 6.28 kJ/mol for the second.

Going from ELREAFRLYDKEGNGYISTDVMREILAELDETLSSEDLDAMIDEIDADFSGTVDFEEFMGVMT [G49F] to ELREAFRLYDKEGNGYISTDVMREILAELDETLSSEDLDAMIDEIDADDSGTVDFEEFMGVMT [G49D], the “folding stability dG” value rises from 4.24 kJ/mol to 5.93 kJ/mol.

Going from ELREAFRLYDKEGNGYISTDVMREILAELDETLSSEDLDAMIDEIDADHSGTVDFEEFMGVMT [G49H] to ELREAFRLYDKEGNGYISTDVMREILAELDETLSSEDLDAMIDEIDADWSGTVDFEEFMGVMT [G49W], the “folding stability dG” value falls from 8.13 kJ/mol to 2.66 kJ/mol.

Compared with ELREAFRLYDKEGNGYISTDVMREILAELDETLSSEDLDAMIDEIDADISGTVDFEEFMGVMT [G49I], ELREAFRLYDKEGNGYISTDVMREILAELDETLSSEDLDAMIDEIDADLSGTVDFEEFMGVMT [G49L] is higher in “folding stability dG” value: 2.09 kJ/mol for the first, 5.41 kJ/mol for the second.

Compared with ELREAFRLYDKEGNGYISTDVMREILAELDETLSSEDLDAMIDEIDADQSGTVDFEEFMGVMT [G49Q], ELREAFRLYDKEGNGYISTDVMREILAELDETLSSEDLDAMIDEIDADPSGTVDFEEFMGVMT [G49P] is lower in “folding stability dG” value: 7.41 kJ/mol for the first, 0.381 kJ/mol for the second.

First: ELREAFRLYDKEGNGYISTDVMREILAELDETLSSEDLDAMIDEIDADNSGTVDFEEFMGVMT [G49N]
Second: ELREAFRLYDKEGNGYISTDVMREILAELDETLSSEDLDAMIDEIDADVSGTVDFEEFMGVMT [G49V]
The “folding stability dG” value of the first is higher: 7.72 kJ/mol for the first, 3.34 kJ/mol for the second.

First: ELREAFRLYDKEGNGYISTDVMREILAELDETLSSEDLDAMIDEIDADTSGTVDFEEFMGVMT [G49T]
Second: ELREAFRLYDKEGNGYISTDVMREILAELDETLSSEDLDAMIDEIDADMSGTVDFEEFMGVMT [G49M]
The “folding stability dG” value of the first is lower: 3.88 kJ/mol for the first, 5.99 kJ/mol for the second.

First: ELREAFRLYDKEGNGYISTDVMREILAELDETLSSEDLDAMIDEIDADSSGTVDFEEFMGVMT [G49S]
Second: ELREAFRLYDKEGNGYISTDVMREILAELDETLSSEDLDAMIDEIDADYSGTVDFEEFMGVMT [G49Y]
The “folding stability dG” value of the first is higher: 6.83 kJ/mol for the first, 4.36 kJ/mol for the second.

With ELREAFRLYDKEGNGYISTDVMREILAELDETLSSEDLDAMIDEIDADKSGTVDFEEFMGVMT [G49K] the “folding stability dG” value was 8.34 kJ/mol.
